The source of these data is the nanobody polyreactivity screen of Harvey et al. (2022).

The data set is described as follows: yeast display, Sf9 membrane polyspecificity reagent, FACS + sequencing; frameworks hold sequencing errors. The essentials: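 Sorting gates, low and high (top ~1%), were placed on anti-HA fluorescence to track expression and on streptavidin fluorescence to track reagent binding. A clone's polyreactivity label is taken from the gate it came out of. The reagent was 10% biotinylated, detergent-solubilized Sf9 membrane, applied for 1 hour at 4 °C to galactose-induced yeast display cells.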
Turning to “QVQLVESGGGLVQAGGSLRLSCAASGYIFDRYAMGWYRQAPGKERELVAAISGRGGSTYYADSVKGRFTISRDNAKNTVYLQMNSLKPEDTAVYYCARDVYVRIGQRARYDSWGQGTQVTVSS”, the “polyreactivity (PSR sort gate)” value is listed as “high polyreactivity”.
For the sequence “QVQIVESGGGLVQAGGSLRLSCAASGSTFNRNAMGWNRQATGKERELVAAITRSASSTYYADSVKGRFTISRDNAKNTVYLQMNSLKPEDTAVYYCAVEYVAYLYRMDYWGQGTQVTVSS”, the “polyreactivity (PSR sort gate)” value was “high polyreactivity”.
To “QVQLVESGGGLVQAGGSLRLSCAASGNIYAYYAMGWYRQAPGKEWELVAAITDSGGNTFYADSVKGRFTISRDNAKNTVYLQMNSLKPVDTAVYYCAADPDGWGFVYPRYDYWGQGTQVTVSS” belongs “low polyreactivity”; to “QVQLVESGGGLVQAGGSLRLSCAASGFIFRAYAMGWYRQAPGKERELVAAISWRGTSTYYADSVKGRFTISRDNAKNTVYLQMNSLKPEDTAVYYCARRRYLPFSRSQGSEDYWGQGTQVTVSS”, “high polyreactivity”; to “QVQLVESGGGLVQAGGSLRLSCAASGSTFGYNAMGWYRQAPGKERELVAGITGSGTRTYYADSVKGRFTISRDNAKNTVYLQMNSLKPEDTAVYYCAATPTRRYYRQSAYDYWGQGTQVTVSS”, “high polyreactivity”.
To “QVQLVESGGGLVQAGGSLRLSCAASGFIFVDYDMGWYRQAPGKERELVAAITDSGTSTYYADSVKGRFTISRDNAKNTVYLQMNSLKPEDTAVYYCNTDVSPSFDYWGQGTQVTVSS” belongs “low polyreactivity”; to “QVKLVESGGCLVQEGGSLRLSCAASGSIFGHYVMRWYRQAPGKERELVAAINRGGSTYYADSVKGRFTISRDNAKNTVYLQMNSLKPEDTAVYYCAAGYPSWYYGYPYDSWGQGTQVTVSS”, “low polyreactivity”; to “QVQLVESGGGLVQAGGSLRLSCAASGSTLSFNAMGWYRQAPGKERELVAGITYSGGSTYYADSVKGRFTISRDNAKNTVYLQMNSLKPEDTAVYYCNKSSGVYYGHLDYWGQGTQVTVSS”, “low polyreactivity”.
As to “QVQLQESGGGLVLAGGSLRLSCAASGSIFLFYTMGWYRQAPVKEREFVAGITLRTPTYNADSVKGRFTISRDNVKNTVYLQMNSLKPEDTAVYYCAVAVGHYTEIWYWGQGTQVTMSS”, the “polyreactivity (PSR sort gate)” value is recorded as “high polyreactivity”.
To “QVQLVESGGGLVQAGGSLRLSCAASGGIFVSYAMGWYRQAPGKEWELVAAITSGGGTSYADSVKGRFTISRDNAKNTVYLQMNSLKPEDTAVYYCNADGYLAERFVIRLDEYRHYDYWGQGTQVTVSS” belongs “low polyreactivity”.
To “QVQLVESGGGLVQAGGSLRLSCAPSGGTYIYAIGWYRQAPGKERDLVAVITSRSGSTYYADSVKGRFTISRDNAKNTVYLQMISLKPEDTAVYYCAAYTRVRTDPGTSFGYWGQCTQVTVSS” belongs “high polyreactivity”; to “QVQLVESGGGLVQAGGSLRLSCAASGSIYGFYAKGWYRQAPAKESELVAAIDSGDSSNYADSVKGRFTISRDNAKNTVYLQMKSLIPEDTAVYYWNAEAWWYFCFDYWGQGTQVTVSS”, “low polyreactivity”.
To “QDQLVESGGGLVQAGGSLRISCAASGSIFDVNAMGWYRQAPGKERELVAAISDSGGSTYYADSVKGRFTISRDNAKNTVYLEMNSLKPVDTAVYYCNADWSWYNYYDFDYWGQGTQVTVSS” belongs “low polyreactivity”; to “QVQLVESGGGLVQAGGSLRLSCAASGSTFDRYAMAWYRQAPGKERELVAAISKNGGRTYYADSVKGRFTISRDNAKNTVYLQMNSLKPEDTAVYYCAKDIIKYDYDYWGQGTQVTVSS”, “low polyreactivity”; to “QVQLVESGGGLVQAGGSLRLSCAASGSILGSNVMGWYRQAPGKERELVAAITSGDSTNYADSVKGRFTISRDNAKNTVYLQMNSLKPEDTAVYYCAKPYSVAPAAVLNWYLGYEYWGQGTQVTVSS”, “low polyreactivity”.
With “QVQLVESGGGLVQAGGSLRLSCAASGRTFSNYAIGWYRQAPGKEREFVSDISWSVGSTYYADSVKGRFTISRDNAKNTVYLQMNSLKPEDTALYYCATEVPVGGQRHLFKYYYWGQGTQVTVSS”, the “polyreactivity (PSR sort gate)” value is “low polyreactivity”.
